Experimental data taken from article PMC4339303.

Tests used:
Assay in all cases: proximity ligation
[1] = target: single-mutant V5-RTEL1^R1237H (mouse) (mouse)
[2] = target: full-length WT V5-RTEL1 (mouse) (mouse)
[3] = target: double-mutant V5-RTEL1^C1252A/C1255A (mouse) (mouse)

full-length WT V5-RTEL1 (mouse) (mouse), sequence (Q0VGM9 whole entry): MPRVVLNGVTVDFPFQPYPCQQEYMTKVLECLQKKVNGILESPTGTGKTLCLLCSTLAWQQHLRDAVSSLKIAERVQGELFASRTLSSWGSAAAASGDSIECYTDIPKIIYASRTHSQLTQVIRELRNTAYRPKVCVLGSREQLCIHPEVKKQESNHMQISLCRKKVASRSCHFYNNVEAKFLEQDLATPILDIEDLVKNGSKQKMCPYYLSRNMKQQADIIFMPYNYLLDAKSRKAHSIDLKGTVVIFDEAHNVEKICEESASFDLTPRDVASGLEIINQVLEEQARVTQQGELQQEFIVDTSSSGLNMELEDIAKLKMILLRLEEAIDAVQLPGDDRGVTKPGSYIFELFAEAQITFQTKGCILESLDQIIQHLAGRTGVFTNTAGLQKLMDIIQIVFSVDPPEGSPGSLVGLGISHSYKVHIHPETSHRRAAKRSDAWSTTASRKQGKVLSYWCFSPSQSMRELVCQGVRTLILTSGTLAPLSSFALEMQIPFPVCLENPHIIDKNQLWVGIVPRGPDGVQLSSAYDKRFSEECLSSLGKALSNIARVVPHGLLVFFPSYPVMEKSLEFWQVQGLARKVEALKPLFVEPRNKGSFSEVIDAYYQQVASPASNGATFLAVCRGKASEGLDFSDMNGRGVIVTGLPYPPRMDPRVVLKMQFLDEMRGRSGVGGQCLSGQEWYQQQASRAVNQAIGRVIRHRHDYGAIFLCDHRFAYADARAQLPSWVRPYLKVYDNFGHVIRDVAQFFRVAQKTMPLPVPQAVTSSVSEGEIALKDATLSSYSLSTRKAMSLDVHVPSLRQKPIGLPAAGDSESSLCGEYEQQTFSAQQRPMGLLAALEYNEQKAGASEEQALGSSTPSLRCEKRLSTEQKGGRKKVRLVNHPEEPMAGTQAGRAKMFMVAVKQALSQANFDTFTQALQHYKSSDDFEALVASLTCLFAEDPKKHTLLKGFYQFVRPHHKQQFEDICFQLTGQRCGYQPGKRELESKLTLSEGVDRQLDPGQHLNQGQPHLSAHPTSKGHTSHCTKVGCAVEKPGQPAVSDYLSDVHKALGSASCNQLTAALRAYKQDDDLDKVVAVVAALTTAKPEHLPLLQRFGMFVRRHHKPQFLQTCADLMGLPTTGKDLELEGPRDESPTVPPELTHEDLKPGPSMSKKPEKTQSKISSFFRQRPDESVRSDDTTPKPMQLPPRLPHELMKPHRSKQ

Substance: endogenous PCNA (proliferating cell nuclear antigen) (from UniProt P17918 1-261) (natural protein)
- PLA foci per nucleus (PLA foci per nucleus) [1]: 13.4
- PLA foci per nucleus (foci per nucleus) [2]: 11.5
- PLA foci per nucleus (PLA foci per nucleus) [3]: 11.6
